The values that follow come from paper doi:10.1101/2023.06.13.544862 (bioRxiv, 2023).

Ends that are not written are not given here. Me3 = trimethyl-lysine; Me2 = dimethyl-lysine

Assay [1] has as its target JMJD3 JmjC domain labelled for microscale thermophoresis (UniProt O15054 1339-1502, labeled with Protein Labeling kit RED-NHS). As to the kind of experiment: MST.
In assay [2] the target is GST-tagged EED, wild type (human, UniProt O75530 1-441). As to the kind of experiment: pull-down.
GST-tagged EED, wild type, sequence (O75530 whole entry): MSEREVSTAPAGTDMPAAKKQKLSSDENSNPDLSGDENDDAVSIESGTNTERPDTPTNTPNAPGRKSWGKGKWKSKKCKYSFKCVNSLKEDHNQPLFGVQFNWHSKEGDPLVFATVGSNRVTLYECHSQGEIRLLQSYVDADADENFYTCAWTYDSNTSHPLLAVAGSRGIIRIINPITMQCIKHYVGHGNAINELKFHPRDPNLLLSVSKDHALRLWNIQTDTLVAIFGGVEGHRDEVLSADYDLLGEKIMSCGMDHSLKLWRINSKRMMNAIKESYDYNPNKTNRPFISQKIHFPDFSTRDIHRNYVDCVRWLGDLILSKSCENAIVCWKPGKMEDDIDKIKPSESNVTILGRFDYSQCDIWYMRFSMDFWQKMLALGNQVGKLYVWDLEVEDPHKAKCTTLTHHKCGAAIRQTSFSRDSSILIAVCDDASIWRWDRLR

JMJD3 JmjC domain labelled for microscale thermophoresis, sequence (O15054 1339-1502): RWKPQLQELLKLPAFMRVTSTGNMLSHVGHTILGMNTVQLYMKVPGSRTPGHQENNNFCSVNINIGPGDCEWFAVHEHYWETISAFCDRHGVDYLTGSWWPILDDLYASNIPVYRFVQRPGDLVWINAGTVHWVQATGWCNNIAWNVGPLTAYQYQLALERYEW

Regarding NARRK(Me2)AAP (peptide, UniProt Q9Y3C1 25-32, looked up, also: biotin) [NOP16 aa 25-32 peptide, di-methylated K29], in assay [1], binding was characterised by a dissociation constant (Kd) of 306 ± 101 µM.
Still for that read-out and setting: the value for NARRK(Me)AAP (peptide, UniProt Q9Y3C1 25-32, looked up, also: biotin) [NOP16 aa 25-32 peptide, mono-methylated K29] was 347 ± 224 µM.

B1: 6xHis-tagged NOP16 (natural protein, human, UniProt Q9Y3C1 1-178, looked up)
chain: MPKAKGKTRRQKFGYSVNRKRLNRNARRKAAPRIECSHIRHAWDHAKSVRQNLAEMGLAVDPNRAVPLRKRKVKAMEVDIEERPKELVRKPYVLNDLEAEASLPEKKGNTLSRDLIDYVRYMVENHGEDYKAMARDEKNYYQDTPKQIRSKINVYKRFYPAEWQDFLDSLQKRKMEVE
As to B1, the binding result in assay [2] is “binds”.
Regarding NARRK(Me3)AAP (peptide, UniProt Q9Y3C1 25-32, looked up, also: biotin) [NOP16 aa 25-32 peptide, tri-methylated K29], the affinity in assay [1], expressed as Kd, was 32.1 ± 27.4 µM.
For NARRKAAP (peptide, UniProt Q9Y3C1 25-32, looked up, also: biotin) [NOP16 aa 25-32 peptide, unmethylated K29], in assay [1], binding was put at a Kd of 103 ± 65.2 µM.
